Test: yeast display, Sf9 membrane polyspecificity reagent, FACS + sequencing; frameworks hold sequencing errors
Outline: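 Genes from sorted yeast were amplified by colony PCR, read by MiSeq 2 × 250 sequencing and filtered on CDR length. These cells carried a synthetic nanobody library in Saccharomyces cerevisiae BJ5465 and were sorted by FACS into low and high (top ~1%) gates on anti-HA and streptavidin fluorescence. Polyreactivity is labelled according to the gate of origin.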

Sequence	polyreactivity (PSR sort gate)
QVQLVESGGGLVQAGGSLRLSCAASGRILASYAMGWYRQAPGKERELVAAISRSGGSTYYADSVKGRFTISRDNAKNTVYLQMNSLKPEDTAVYYCAAKYPQKTPVNSYGILDSWGQGTQVTVSS	high polyreactivity
QVQLVESGGGLVQAGGSLRLSCAASGNIFLYYAMGWYRQAPGKERELDADIDSSGASTYYADSVKGRFTISRDNAKNNVYLQMNSLKPEDTAVYYCAAEFHWWYAGYDYGYWGQGTQVTVSS	low polyreactivity
QDQLVEACGGLVQAGGSLRLSCASSRSIIRGYAMGWYIQAHGKERELVAVIRRTSVSTYYADSVKGRFTISRDNAKNTVYLQMKCLKPEDTAVYYCNTLRLSSYPYYGYLGQGTQVTVSS	high polyreactivity
QVQLVESGGGLVQAGGSLRLSCADSGSIFQYYVRGCYRQAPGKERELVAAIRRSGTTYYADSVKGRFTISRDNAKNTVYLQMNSLKTEDTAVDYCNKVRCQEPSNYDYWVQGTQVTVSS	low polyreactivity
QVQLVESGGGLFQAGGSLRLSCAASGRISYGNAMGWYRQAPGKEMELVAAISGSGGSKYYADSVKGRFTISRDNAKNTVYLQMNSLKPEDTAVYYCAADSRKRQGYGYWGQGTQVTVSS	low polyreactivity
QVQLVESGGGLVQAGGSLRLSCAASGSIFWRNAMGWYRQAPGKERELVAAITSGGSTYYADSVKGRFTISRDNAKNTVYLQMNSLNPEDTAVYYCAAGYSYRYGYWGQGTQVTVSS	low polyreactivity
HAQLQESGGGLVQAGGSLRRSCAASGSMFRFSGMGWYRRAPGKERELVASIGFGSITYYADRVKGRFTISRDNANHTVYLQMNTLKPEDTAVYYCAVQVQDESWLDYWGQGTQVTVSC	low polyreactivity
QVQLVESGGGLVQERGSLRLSCAASGSIFIPYARGWYRQAPGKERELVAAISLGDGKTYYADSVKGRFTISRDNAKNTVYLQMNSLKPEDTAVYYCNAVPRKFGDEYWGQGTQVTVSS	low polyreactivity
QVQLVESGGGLVQAGGSLRLSCAASGFIFDTYAMGWYRQAPGKERELVAAISYRGGSTYYADSVKGRFTISRDNAKNTVYLQMNSLKPEDTAVYYCNAYWRYSYFGRDYWGQGTQVTVSS	low polyreactivity
QVQLVESGGGLVQAGGSLRLSCAASGRIFLYAMGWYRQAPGKERELVAAINRGGSTYYADSVKGRFTISRDNAKNTVYLEMNSLKPEDTAVYYCAAKRLTCRQHDYWGQGTQVTVSS	high polyreactivity
QVQLVESGVGLVQAGGSLRLSCAASGFTFCPYDKGWYRQAPGKERELVAVIIGGDSTNYADSVKGRFTISRDNAKNTVYLLMNSLKPEDTAVYYCASDYIDRVGWMDYWGQGTQVTVSS	low polyreactivity
QVQLVESGGGLVQAGGSLRLSCAATGYTFFRNTMGWYRQAPGKESELVAVITKSGGSTYYADSVKWRFTISRDNAKNTVYLHMNSLIPEDTAVYYCNAVTALRNTEYNYWGQGTQVTVSS	high polyreactivity
QVQLVESGGGLVQAGGSLRLSCAASGSTFYYNAMGWYRQAPGKERELVAVITLNGGRTSYADSVKGRFTISRDNAKITVYLQMNSLKPEDTAVYYCAADRYRGYGYWGQGTQVTVSS	low polyreactivity
QVQLVESGGGLVQAGGSLRLSCAASGFTFSSNAMGWYRQAPGKERELVAAISSSGARTYYADSVKGRFTISRDNAKNTVYLQMNSLKPEDTAVYYCNARGLAGRKGYDYWGHGTQVTVSS	high polyreactivity
QVQLVESGGGLVQAGGSLRLSCAASGRTFGYYGLGWSRQAPGKERELVAAITGSGGSTYYADSVKGRFTISRDNAKNTVYLQMNSLKPEDTAVYYCNTARRHGQTQGGDYWGQGTQVTVSS	high polyreactivity
QVQLVESGGGLVHAGGSLRLSCAASGNIITYNAMALYRQAPGKERELVAAITRGGNTNYADSVKGRFTISRDNAKNTVYLQMNSLKPEDTAVYFCAADRYVQLLGYFFEFDYWGQGSQVTVSS	low polyreactivity
QVQLVESGGGLVQAGGSLRLSCAASGLIIYRYGMGWYRQAPGKERELVAAISYSGSSSYYADSVKGRFTISRDNAKNTVYLQMNSLKPEDTAVYYCAARHGPRSEAMYYWGQGTQVTVSS	high polyreactivity
QVQLVESGAGLVQAGGSLRLSCAASGFTFDNYVMGWYRQAPGKERELVAAISKSGTSTYYADSVKGRFTISRDNAKNTVYLQMNSLKPEDTAVYYCAAALPGYGDYYYWGQGTLVTVSS	high polyreactivity
QVQLVESGGGLVQAGGSLRLTCAASRRTFEHYAMGWYRQAPVKEREYVAAINSSDGGTYYADSVKGRFTISRDNAKNTVYLQMIRLKPDDSAVYYCAAAEFGSVPGYEMDYWGQGTQVTVSS	low polyreactivity
QVQLVESGGGLVQAGGSLRLSCAASGTFWWYAMGWYRQAPGKERELVASINRGGSTYYADSVKGRFTISRDNAKNTVYLQMNSLKPEDSAVYYCNARWIGRLTPYRRATYYYWGQGTQVTVSS	high polyreactivity
QVQLQEGGGGLVQAGGSLRLSCAASGYISYGDVMGWYRQAPGEERELVASIGLDATTNYADSVKGRFTISRDNAKITVYLQMNSLKPEDTAVYYCAADVGSGVLCGYWGQGTQMTVSS	high polyreactivity

Sequence	polyreactivity (PSR sort gate)
QVQLVESGGGLVQAGGSLRLSCAASGSIFGSNAMGWYRQARGKERELVASISKRGGSTYYADSVKGRFTISRDNAKNTVYVQMNSLKPEDTAVYSCAARSYYNGKISRVGYWGQGTQVTVSS	high polyreactivity
QVQLVESGGGLVQAGGTLRLSCAASGSIQYRYAMGWYRQAHGKERELVAAISARGGNTYYADSVKGRFTISRDNAKNTVYVQMNSLKPEDTAVYYCAATYRGYRLHVAYDYWGQGTQVTVSS	high polyreactivity
QVQLVESGGGLVQAGGSLRLSCAASGFTFAQYTMGWYRPAPGKERELVAAIRVGGGSTYYADSVKGRFTISRDNAKNTVYLQMNSLKPEDTAVYYCAKRTYSRKFRGAYNYWGQGTQVTVSS	high polyreactivity
QVQLVESGGGLVQAGGSLRLISAASGINFTGYAMGWYRQAPGKERELVAAISYSAASTYYADSVKGRFTISRDTAKNTVYLQMNSLKPEDTAVYYCAATAPSRSYPFRYYYWGQGTQVTVSS	high polyreactivity
QVQLVESGGGILQAGGSLRLSCAASGSIFGGNAMGWYRQAPGKERELVAAITSTVSTNYADSVKGRFTISRDNAKNTVYLQMNSLKPEDTAVYYCANDTSNVEGDYWGQGTQVTVSS	low polyreactivity
QVQLVESGGGLVQAGGSLRLSCAASGLIFYENAMGWYRQAPGKERELVAAINYDGDSTYYADSVKGRFTISRDNAKNTFYLQLNSLKPEDTAVYYCAADGGWVLFWMDYWGQGTQVTVSS	low polyreactivity
QVQLVESGGGLVQAGGSLRLSCAASGSTFGYYAMGWYRQAPGKERELVAAISGSGTSTYYADSVKGRFTISRDNAKNTVYLQMNSLKPEDTAVYYCATRYRYTGCGYWGQGSQVTVSS	low polyreactivity
QVQLVESGGGLVQAGGSLRLSCAASGRTFYIYAMGWYRQAPGKERALDAAITYGGGRTFYADSVKGRFTISRDNAKNTVYLQMNSLKPEDTAVYYCAATVRGKRSTYDYWGQGTQVTVSS	high polyreactivity
QVQLLESGGGLVQAGGSLRLSCAASGSIFGLYAMGWYRQAPGKERELVAALTWSSGNTYYADSVKGRFTISRDNAKNTVYLQMNSLKPEDTAVYYCSARVYRYGAMDYWGQGTQVTVSS	high polyreactivity
QVQIVESGGGLVQAGASLSLSCAASGSIFGTNAMGWYRQAPGKERELVAAISSAGASTYYADSVKGRFTISRDNAKNTVYLQMNSLKPEDTAVYYCARGYTYQSSSFYYWGQGTQVTVSS	low polyreactivity
QVQLVDSGGGLVQAGGSLRLSCAASGSTFSLYAMGWYRQAPGKEREMVASITWGGGSTYADSVKGRFTISRDNAKNTVYLQMNSLKPEDTAVYYCARKFRYRVLYDFAYDHWGLGTQVTVSS	low polyreactivity
QVQLVESGGVLVQAGGSLRLSCAASGFTFNYYVMGWYRQAPWKERELVATITSVGSTYYADSVKGRFTISRDNAKNTVYLQMNSLKPEDTAVYYCNADWYWRVYWGQGTQVTVSS	high polyreactivity
QVQLVESGGGLVQAGGSLRLSCAASGRTFRYYAMGWYRQAPGKERELVAGISSSGRTYYADSVKGRFTISRDNAKNTVYLQMNSLKPEDTAVYYCNAVYWPVRPVDRHDYWGQGTQVTVSS	high polyreactivity
QVQLVESGGRLVQAGGSLRLSCAASGSIFNRYAMGWYRQAPGKERELVARITNRSGNTYYADSVKGRFTISRANAKNTVYLQMNSLKPEDTAVYYCAATKSLGRYNMDYWGQGTQVTVSS	low polyreactivity
QVQHVESGGGLVQAGGSLRLSCAASGRIFYNYAMGWYRQAPGKEREFVADIDFNGGSTYYADSGKGRFTISRDNAKTTVYLQMNSLKPDDTAVYYSAAEQDDARYNAWWIGPMYSWGQGTQVTVSS	low polyreactivity
QVQLVESGGGLVQAGGSLRLSCAASGITFFRYAMGWYRQAPGKERELVAAITTSGSSTFYADSVKGRFTISRDNAKNTVYLLMNSLKPEDTAVYYCAAVFRWARLYEYDYWGQGTQVTVSS	high polyreactivity
QVQLVESGGGLVQAGGSLRLSCAASGLTFIYYAMGWYRQAPGKERELVAGITRRGGSTYYADSVKGRFTISRDNAKNNVYLQMNSLKPEDTAVYYCAKSPVYRFDSWGQGTQVTVSS	high polyreactivity
QVQLVETGGGLVQAGGSLRLSCAASGSIFVRNAMGWYRQAPGKERELVAAINRDGGRTYYADSVKGRFTISRDNAKNTVYLQMNSLKPEDTAVYYCNAGGVSFEYGYWGQGTQVTVSS	high polyreactivity
QVQLVESGGGLVQAGGSLRISCAASGFTFRWYTMGWYRQAPGKERELVAAISWSGTSTYYADSVKGRFTISRDNAKNTVYLQMNSLKPEDTAVYYCAAADFYYTGADDYWGQGTQVTVSS	high polyreactivity
QVQLVESGGGLVQAGGSLRLSCAASGNIFRVYDMGWYRQAPGKERELVAVIRWSSGRTYYADSVKGRFTISRDNAKNTVYLQMNSLKPEDTAVYYCATKLWRVPRNSHYDSYEYWGQGTQVTVSS	high polyreactivity
